# Paper PMC12416549 (2024)
# T1: TNFR1 (Homo sapiens, UniProt P19438)
# T1 chain: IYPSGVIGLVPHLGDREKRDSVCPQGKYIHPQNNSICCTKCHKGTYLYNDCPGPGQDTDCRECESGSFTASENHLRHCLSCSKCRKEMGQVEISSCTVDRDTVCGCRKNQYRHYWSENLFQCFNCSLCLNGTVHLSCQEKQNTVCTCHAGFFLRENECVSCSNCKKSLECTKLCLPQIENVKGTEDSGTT
# Molecular target: T1, TNFR1
# Experiment: yeast display SC50
row,apparent Kd (screen) [nM],Binder
1,0.593,E95A (designed binder) MTLQELLREEALRRAEAEAFRYALELLAEKFPEQKEYLLDLAEEIESQIRSLSGVDVEDVRKFLDKEWAWVKELLAEHPAELAEVEAARAARLAALRAEVEAKVAA
2,0.869,A76M (designed binder) MTLQELLREEALRRAEAEAFRYALELLAEKFPEQKEYLLDLAEEIESQIRSLSGVDVEDVRKFLDKEWAWVKELLMEHPAELAEVEAARAARLAELRAEVEAKVAA
3,0.653,V104M (designed binder) MTLQELLREEALRRAEAEAFRYALELLAEKFPEQKEYLLDLAEEIESQIRSLSGVDVEDVRKFLDKEWAWVKELLAEHPAELAEVEAARAARLAELRAEVEAKMAA
4,1.54,L74Q (designed binder) MTLQELLREEALRRAEAEAFRYALELLAEKFPEQKEYLLDLAEEIESQIRSLSGVDVEDVRKFLDKEWAWVKEQLAEHPAELAEVEAARAARLAELRAEVEAKVAA
5,0.718,E95Y (designed binder) MTLQELLREEALRRAEAEAFRYALELLAEKFPEQKEYLLDLAEEIESQIRSLSGVDVEDVRKFLDKEWAWVKELLAEHPAELAEVEAARAARLAYLRAEVEAKVAA
6,2.05,E10W (designed binder) MTLQELLREWALRRAEAEAFRYALELLAEKFPEQKEYLLDLAEEIESQIRSLSGVDVEDVRKFLDKEWAWVKELLAEHPAELAEVEAARAARLAELRAEVEAKVAA
7,2.25,S53E (designed binder) MTLQELLREEALRRAEAEAFRYALELLAEKFPEQKEYLLDLAEEIESQIRSLEGVDVEDVRKFLDKEWAWVKELLAEHPAELAEVEAARAARLAELRAEVEAKVAA
8,0.539,K66G (designed binder) MTLQELLREEALRRAEAEAFRYALELLAEKFPEQKEYLLDLAEEIESQIRSLSGVDVEDVRKFLDGEWAWVKELLAEHPAELAEVEAARAARLAELRAEVEAKVAA
9,0.446,A83Q (designed binder) MTLQELLREEALRRAEAEAFRYALELLAEKFPEQKEYLLDLAEEIESQIRSLSGVDVEDVRKFLDKEWAWVKELLAEHPAELQEVEAARAARLAELRAEVEAKVAA
10,0.49,L82I (designed binder) MTLQELLREEALRRAEAEAFRYALELLAEKFPEQKEYLLDLAEEIESQIRSLSGVDVEDVRKFLDKEWAWVKELLAEHPAEIAEVEAARAARLAELRAEVEAKVAA
11,0.653,P79T (designed binder) MTLQELLREEALRRAEAEAFRYALELLAEKFPEQKEYLLDLAEEIESQIRSLSGVDVEDVRKFLDKEWAWVKELLAEHTAELAEVEAARAARLAELRAEVEAKVAA
12,2.48,V71W (designed binder) MTLQELLREEALRRAEAEAFRYALELLAEKFPEQKEYLLDLAEEIESQIRSLSGVDVEDVRKFLDKEWAWWKELLAEHPAELAEVEAARAARLAELRAEVEAKVAA
13,0.593,A23L (designed binder) MTLQELLREEALRRAEAEAFRYLLELLAEKFPEQKEYLLDLAEEIESQIRSLSGVDVEDVRKFLDKEWAWVKELLAEHPAELAEVEAARAARLAELRAEVEAKVAA
14,0.869,L74Y (designed binder) MTLQELLREEALRRAEAEAFRYALELLAEKFPEQKEYLLDLAEEIESQIRSLSGVDVEDVRKFLDKEWAWVKEYLAEHPAELAEVEAARAARLAELRAEVEAKVAA
15,0.49,Q4V (designed binder) MTLVELLREEALRRAEAEAFRYALELLAEKFPEQKEYLLDLAEEIESQIRSLSGVDVEDVRKFLDKEWAWVKELLAEHPAELAEVEAARAARLAELRAEVEAKVAA
16,0.593,P79Q (designed binder) MTLQELLREEALRRAEAEAFRYALELLAEKFPEQKEYLLDLAEEIESQIRSLSGVDVEDVRKFLDKEWAWVKELLAEHQAELAEVEAARAARLAELRAEVEAKVAA
17,0.49,P32S (designed binder) MTLQELLREEALRRAEAEAFRYALELLAEKFSEQKEYLLDLAEEIESQIRSLSGVDVEDVRKFLDKEWAWVKELLAEHPAELAEVEAARAARLAELRAEVEAKVAA
18,0.49,L96K (designed binder) MTLQELLREEALRRAEAEAFRYALELLAEKFPEQKEYLLDLAEEIESQIRSLSGVDVEDVRKFLDKEWAWVKELLAEHPAELAEVEAARAARLAEKRAEVEAKVAA

row,apparent Kd (screen) [nM],Binder
1,0.446,K35C (designed binder) MTLQELLREEALRRAEAEAFRYALELLAEKFPEQCEYLLDLAEEIESQIRSLSGVDVEDVRKFLDKEWAWVKELLAEHPAELAEVEAARAARLAELRAEVEAKVAA
2,1.54,E44R (designed binder) MTLQELLREEALRRAEAEAFRYALELLAEKFPEQKEYLLDLAERIESQIRSLSGVDVEDVRKFLDKEWAWVKELLAEHPAELAEVEAARAARLAELRAEVEAKVAA
3,0.539,A88S (designed binder) MTLQELLREEALRRAEAEAFRYALELLAEKFPEQKEYLLDLAEEIESQIRSLSGVDVEDVRKFLDKEWAWVKELLAEHPAELAEVEASRAARLAELRAEVEAKVAA
4,1.27,D56S (designed binder) MTLQELLREEALRRAEAEAFRYALELLAEKFPEQKEYLLDLAEEIESQIRSLSGVSVEDVRKFLDKEWAWVKELLAEHPAELAEVEAARAARLAELRAEVEAKVAA
5,0.539,K30F (designed binder) MTLQELLREEALRRAEAEAFRYALELLAEFFPEQKEYLLDLAEEIESQIRSLSGVDVEDVRKFLDKEWAWVKELLAEHPAELAEVEAARAARLAELRAEVEAKVAA
6,13.8,L64A (designed binder) MTLQELLREEALRRAEAEAFRYALELLAEKFPEQKEYLLDLAEEIESQIRSLSGVDVEDVRKFADKEWAWVKELLAEHPAELAEVEAARAARLAELRAEVEAKVAA
7,0.593,E81V (designed binder) MTLQELLREEALRRAEAEAFRYALELLAEKFPEQKEYLLDLAEEIESQIRSLSGVDVEDVRKFLDKEWAWVKELLAEHPAVLAEVEAARAARLAELRAEVEAKVAA
8,0.539,K103C (designed binder) MTLQELLREEALRRAEAEAFRYALELLAEKFPEQKEYLLDLAEEIESQIRSLSGVDVEDVRKFLDKEWAWVKELLAEHPAELAEVEAARAARLAELRAEVEACVAA
9,0.405,L24N (designed binder) MTLQELLREEALRRAEAEAFRYANELLAEKFPEQKEYLLDLAEEIESQIRSLSGVDVEDVRKFLDKEWAWVKELLAEHPAELAEVEAARAARLAELRAEVEAKVAA
10,10.4,A28K (designed binder) MTLQELLREEALRRAEAEAFRYALELLKEKFPEQKEYLLDLAEEIESQIRSLSGVDVEDVRKFLDKEWAWVKELLAEHPAELAEVEAARAARLAELRAEVEAKVAA
11,0.869,E9S (designed binder) MTLQELLRSEALRRAEAEAFRYALELLAEKFPEQKEYLLDLAEEIESQIRSLSGVDVEDVRKFLDKEWAWVKELLAEHPAELAEVEAARAARLAELRAEVEAKVAA
12,0.718,E81D (designed binder) MTLQELLREEALRRAEAEAFRYALELLAEKFPEQKEYLLDLAEEIESQIRSLSGVDVEDVRKFLDKEWAWVKELLAEHPADLAEVEAARAARLAELRAEVEAKVAA
13,1.54,V57P (designed binder) MTLQELLREEALRRAEAEAFRYALELLAEKFPEQKEYLLDLAEEIESQIRSLSGVDPEDVRKFLDKEWAWVKELLAEHPAELAEVEAARAARLAELRAEVEAKVAA
14,2.48,S53G (designed binder) MTLQELLREEALRRAEAEAFRYALELLAEKFPEQKEYLLDLAEEIESQIRSLGGVDVEDVRKFLDKEWAWVKELLAEHPAELAEVEAARAARLAELRAEVEAKVAA
15,11.4,L38S (designed binder) MTLQELLREEALRRAEAEAFRYALELLAEKFPEQKEYSLDLAEEIESQIRSLSGVDVEDVRKFLDKEWAWVKELLAEHPAELAEVEAARAARLAELRAEVEAKVAA
16,0.653,E73M (designed binder) MTLQELLREEALRRAEAEAFRYALELLAEKFPEQKEYLLDLAEEIESQIRSLSGVDVEDVRKFLDKEWAWVKMLLAEHPAELAEVEAARAARLAELRAEVEAKVAA
17,0.539,E43W (designed binder) MTLQELLREEALRRAEAEAFRYALELLAEKFPEQKEYLLDLAWEIESQIRSLSGVDVEDVRKFLDKEWAWVKELLAEHPAELAEVEAARAARLAELRAEVEAKVAA
